The values that follow come from patent US20120324600A1, “CONSTITUTIVE SYNTHETIC PLANT PROMOTERS AND METHODS OF USE” (SYNGENTA PARTICIPATIONS AG, priority 2010, published 2012).

Assay type in all cases: in vivo
In one data set the test system is maize. The data set is described as follows: expression of a heterologous sequence in maize. The source says: A similar strategy for building synthetic plant promoters for use in maize was implemented.
The test system of data set [1] is oat HPPD protein expression. The experiment in a line: oat HPPD protein expression by ELISA in T1 transgenic soybean events. The settings on record: inferred from ELISA and mesotrione tolerance of HOM vs HET siblings. The source says: To express a synthetic oat (Avena sativa) 4-hydroxyphenylpyruvate dioxygenase (cAvHPPD) in stably transformed soybean, viral transcriptional and translational enhancers, and a minimal promoter were created by PCR or direct DNA synthesis and combined by standard DNA restriction digestion and ligation reactions. A synthetic plant promoter comprising defined components eFMV (SEQ ID NO: 1), eTMV (SEQ ID NO: 2), the Cauliflower Mosaic Virus 35S enhancer region (e35S) and a minimal promoter (pr35SCMP: Cestrum Yellow Leaf Curl virus TATA-box motif; no CAAT 35S-proximal promoter sequence) were combined to create SEQ ID NO: 3. Subsequently, SEQ ID NO: 3 was modified by digestion with a DNA restriction enzyme XhoI to remove defined components e35S, pr35SCMP (including the TATA-box motif) followed by a standard ligation reaction to create SEQ ID NO: 4. […] One skilled in the art would readily recognize other subelements which would be suitable to use.
The plasmids containing the synthetic plant promoter expression cassettes were transformed into soybean using Agrobacterium tumefaciens. […] Expression of cAvHPPD of surviving T0 plants was quantified by ELISA (Engvall E, Perlman P (1971). “Enzyme-linked immunosorbent assay (ELISA). Quantitative assay of immunoglobulin G”. Immunochemistry 8(9):871-874).
(§1) The first generation transgenic soybean events (T1) harboring SEQ ID NO: 3, SEQ ID NO: 4, SEQ ID NO: 5, SEQ ID NO: 6, or SEQ ID NO: 7 were characterized for segregation analysis, oat HPPD protein expression and tolerance to mesotrione herbicide spray. The green leaf tissues from the first trifoliate of five independent events were sampled to determine the segregation ratios (homozygous, heterozygous or null) of the individual seedlings as determined by zygosity Taqman® assays and oat HPPD protein expression by ELISA. At the V2 stage, the seedlings were sprayed with the HPPD inhibiting herbicide mesotrione and tolerance rating determined approximately 10 days post-application.
On the technique in general: An ELISA detects its analyte on a solid surface through an enzyme-linked reagent.

In data set [2] the test system is transgenic soybean events. The data set is described as follows: tolerance to mesotrione herbicide spray of T1 transgenic soybean seedlings. The settings on record: sprayed at V2 stage, rated approximately 10 days post-application.
Excerpt: as §1

B1: SEQ ID NO: 3: synthetic plant promoter, subelements eFMV, e35S, pr35SCMP, eTMV; 625 bp (nucleic acid)
DNA: AGCTGCTTGTGGGGACCAGACAAAAAAGGAATGGTGCAGAATTGTTAGGCGCACCTACCAAAAGCATCTTTGCCTTTATTGCAAAGATAAAGCAGATTCCTCTAGTACAAGTGGGGAACAAAATAACGTGGAAAAGAGCTGTCCTGACAGCCCACTCACTAATGCGTATGACGAACGCAGTGACGACCACAAAACTCGAGACTTTTCAACAAAGGGTAATATCCGGAAACCTCCTCGGATTCCATTGCCCAGCTATCTGTCACTTTATTGTGAAGATAGTGGAAAAGGAAGGTGGCTCCTACAAATGCCATCATTGCGATAAAGGAAAGGCTATCGTTGAAGATGCCTCTGCCGACAGTGGTCCCAAAGATGGACCCCCACCCACGAGGAGCATCGTGGAAAAAGAAGACGTTCCAACCACGTCTTCAAAGCAAGTGGATTGATGTGATATCTCCACTGACGTAAGGGATGACGAACAATCCCACTATCCTTCTGCAGGTCGACTCTAGAGGATCCTATAAATAGGAAGTTCATTTCATTTGGAGAGGAAACCTCGAGTATTTTTACAACAATTACCAACAACAACAAACAACAAACAACATTACAATTACTATTTACAATTACA
modifications: synthetic plant promoter
notes: synthetic plant promoter, subelements eFMV, e35S, pr35SCMP, eTMV; 625 bp
In the case of B1, the “promotion of expression of a heterologous sequence in maize” value with maize is “successfully used to promote the expression of a heterologous sequence in maize”. Besides, the “transgene silencing in HOM plants” value in data set [1] is given as “indicative of transgene silencing”. Besides, the “tolerance to mesotrione herbicide spray” value in data set [2] is on record as “significant initial damage to the homozygous (HOM) compared to the heterozygous (HET) siblings”.

B2: SEQ ID NO: 5: synthetic plant promoter, subelements eFMV, e35S, iUBQ3, pr35SCMP, eTMV; 1017 bp (nucleic acid)
DNA: AGCTGCTTGTGGGGACCAGACAAAAAAGGAATGGTGCAGAATTGTTAGGCGCACCTACCAAAAGCATCTTTGCCTTTATTGCAAAGATAAAGCAGATTCCTCTAGTACAAGTGGGGAACAAAATAACGTGGAAAAGAGCTGTCCTGACAGCCCACTCACTAATGCGTATGACGAACGCAGTGACGACCACAAAACTCGAGACTTTTCAACAAAGGGTAATATCCGGAAACCTCCTCGGATTCCATTGCCCAGCTATCTGTCACTTTATTGTGAAGATAGTGGAAAAGGAAGGTGGCTCCTACAAATGCCATCATTGCGATAAAGGAAAGGCTATCGTTGAAGATGCCTCTGCCGACAGTGGTCCCAAAGATGGACCCCCACCCACGAGGAGCATCGTGGAAAAAGAAGACGTTCCAACCACGTCTTCAAAGCAAGTGGATTGATGTGATATCTCCACTGACGTAAGGGATGACGAACAATCCCACTATCCTTCTGCAGGTCGACTCTAGAGGATCTTATAAATAGGTATATTTTCTGATTCTTTTTGTTTTTGATTCGTATCTGATCTCCAATTTTTGTTATGTGGATTATTGAATCTTTTGTATAAATTGCTTTTGACAATATTGTTCGTTTCGTCAATCCAGCTTCTAAATTTTGTCCTGATTACTAAGATATCGATTCGTAGTGTTTACATCTGTGTAATTTCTTGCTTGATTGTGAAATTAGGATTTTCAAGGACGATCTATTCAATTTTTGTGTTTTCTTTGTTCGATTCTCTCTGTTTTAGGTTTCTTATGTTTAGATCCGTTTCTCTTTGGTGTTGTTTTGATTTCTCTTACGGCTTTTGATTTGGTATATGTTCGCTGATTGGTTTCTACTTGTTCTATTGTTTTATTTCAGGTGGATCCTATAAATAGGAAGTTCATTTCATTTGGAGAGGAAACCTCGAGTATTTTTACAACAATTACCAACAACAACAAACAACAAACAACATTACAATTACTATTTACAATTACA
modifications: synthetic plant promoter
notes: synthetic plant promoter, subelements eFMV, e35S, iUBQ3, pr35SCMP, eTMV; 1017 bp
Turning to B2, in data set [1], the “transgene silencing in HOM plants” value is “relieve transgene silencing”. Besides, in data set [2], the “tolerance to mesotrione herbicide spray” value is “improved tolerance to the HPPD inhibitor herbicide mesotrione”.
